The values that follow come from patent US20110183942A1, “Methods and Compositions for Treating Alzheimer's Disease” (UNIVERSITY OF MEDICINE AND DENTISTRY OF NEW JERSEY, priority 2008, published 2011).

The target of test [1] is T1, eEF2 kinase (Homo sapiens, UniProt O00418).
T1 construct: made in house; host or cells: E. coli
Put plainly: Peptide substrate phosphorylation by eEF2 kinase. It is filed as biochemical. An excerpt:
While alpha-kinase phosphorylation sites are typically found within alpha-helicies of peptide substrates, it was unknown for eEF2K if alpha-kinases recognized target substrates based on a specific primary peptide sequence around the phosphorylation site of eEF2K, or whether the alpha-helical secondary structure is responsible for the phosphorylation by alpha-kinases. To clarify this an arrayed peptide library screen was used (Turk, Yale Med. Sch. Dept. Pharmacol.) that thoroughly evaluated for specific kinase preference all 20 amino acids at each of nine positions neighboring the phosphorylation site.
Every peptide comprising this library contained a central fixed phosphorylation site where equimolar quantities of threonine and serine were introduced; each peptide also contained a carboxy-terminal biotin label. […]
Reactions in this screen were run for a given incubation time and then spotted simultaneously on a streptavidin membrane through use of a high throughput capillary-based liquid transfer device. Submersion of the membrane in a specified quenching solution stripped away unincorporated ATP and then radiolabeled-ATP incorporation was measured using a phosphoimager. […]

In a further test the target is eEF2K (Homo sapiens, UniProt O00418). The test is described as follows: eEF2K activity in vitro. It is filed as biochemical.
Test [2] deals with T1, eEF2 kinase. The test is described as follows: HTS screen for eEF2 kinase inhibitors (ATP depletion coupled to luciferase luminescence, eEF2p substrate). It is filed as biochemical.
Test [3] has as its system Arc mRNA in cultured neurons. Put plainly: Real-time RT-PCR of Arc mRNA. The following applies: BDNF 10 ng/ml at 40 min; forskolin 50 μM at 20 min; DHPG at 20 and 40 min after stimulation. It is filed as cell-based. As to the method:
RNA samples from neuronal cultures were prepared using the PARIS kit (Ambion) according to the manufacturer's protocol. Following RNA extraction, samples were treated with DNase to remove contaminating DNA prior to cDNA synthesis. Total RNA was reverse transcribed using the SuperScript II First Strand Synthesis System for RT-PCR (Invitrogen) according to the manufacturer's protocol. A negative control without reverse transcriptase was included.
Primer specificity was verified by melt curve analysis. PCR amplification of cDNA was performed using the BioRad iCycler Real-Time Detection System (BioRad Laboratories). cDNA (1 μl) was added to 24 μl of 1× reaction master mix (3 mM MgCl2, KCl, Tris-HCl, iTaq DNA polymerase, 25 units/ml SYBR Green 1, 0.2 mM each dNTPs, 10 nM fluorescein and 500 nM each gene specific primers). […]
GAPDH was used to normalize data. The threshold for detection of PCR product above background was set at 10× the standard deviation of the mean background fluorescence for all reactions. Background fluorescence was determined from cycles 1-5 prior to the exponential amplification of product and subtracted from the raw fluorescence of each reaction/cycle. […] Threshold cycle (CT; number of cycles to reach threshold of detection) was determined for each reaction.
Relative gene expression was determined using the 2^−ΔΔCT method (Livak, et al., Methods 25, 402-408 (2001)). […]

The test system of test [4] is Arc protein in DIV14 forebrain neurons. Put plainly: Western blot of Arc protein in cultured forebrain neurons. The settings on record: BDNF 10 ng/ml. It is filed as cell-based, mouse. As to the method:
For biochemistry experiments, 0.4×10^6 neurons were added to each well of a 6-well plate (Coming) coated with poly-L-lysine. Growth medium consisted of NeuroBasal (Invitrogen) supplemented with 1% fetal bovine serum (Hyclone), 2% B27, 1% Glutamax (Invitrogen), 100 U/mL penicillin, and 100 U/mL streptomycin (Invitrogen). Neurons were fed twice per week with glia conditioned growth medium.
Transfected HEK293T cells or cultured neurons were treated with various drugs and then harvested in IP buffer supplemented with 1% Triton X-100 buffer and Complete™ EDTA-Free protease inhibitors. Soluble fractions were diluted with 4× SDS sample buffer.
The membrane was blocked with TBST (50 mM Tris, pH 7.5, with 150 mM NaCl, and 0.1% Tween-20) containing 5% non-fat milk for one hour at room temperature, followed by incubation with primary antibody in TBST buffer overnight at 4° C. After three washes with TBST buffer, membranes were incubated with HRP-conjugated anti-rabbit, or anti-mouse antibody in TBST for another hour. After three washes with TBST buffer, the membrane was treated with SuperSignal ECL substrate (Pierce) according to the manufacturer's protocol.
To reduce the background signal in the co-IP assay, HRP-conjugated HA or HPR conjugated myc antibody (Santa Cruz) was used when overexpressed proteins were tagged with HA or myc. […] Image J software (NIH) was used for quantification.

“Also recorded” adds a separate entry of the source. Read-outs that look alike come from different tables or passages of the source. Where no end group is shown, it is not given here.

For the molecule Ac-RKKYKFNEDTERRRFL [eEF2p], the “efficiency as substrate compared with the MH-U peptide” value with eEF2 kinase [1] is listed as “two orders of magnitude more efficient”.
In the case of `CCCCCCCCCCCCC/C=C/[C@@H](O)[C@@H](N)COP(=O)(O)O` [Sphingosine-1-phosphate, sphingosine-1-phosphate], the “inhibition of eEF2K activity in vitro” value at eEF2K was “inhibit eEF2K activity”; against eEF2K (listed as sphingosine-1-phosphate), “inhibitor of eEF2 kinase”.
In the case of `CCCCCCCCCCCCCCCCN1C=CN(c2ccccc2)C1` [L-207], the “identified as inhibitor for eEF2 kinase” value on eEF2 kinase [2] is given as “inhibitors for eEF2 kinase”.

B1: BDNF: BDNF, applied at 10 ng/ml to neurons (protein, UniProt P23560 19-247, looked up)
Neurotrophic factor BDNF …: APMKEANIRGQGGLAYPGVRTHGTLESVNGPKAGSRGLTSLADTFEHVIEELLDEDQKVRPNEENNKDADLYTSRVMLSSQVPLEPPLLFLLEEYKNYLDAANMSMRVRRHSDPARRGELSVCDSISEWVTAADKKTAVDMSGGTVTVLEKVPVSKGQLKQYFYETKCNPMGYTKEGCRGIDKRHWNSQCRTTQSYVRALTMDSKKRIGWRFIRIDTSCVCTLTIKRGR
In the case of B1, the “level of Arc mRNA” value in test [3] was “induced the level of Arc mRNA”. Besides, the entries for the “level of Arc protein after BDNF” value in test [4] (40 min after treatment) and in test [4] (after 5 min) were “increased Arc protein expression; also recorded: increased the level of Arc protein” and “no change”, respectively.
